Results taken from patent US6391584B1, “Expression-cloning method for identifying target proteins for eukaryotic tyrosine kinases and novel target proteins” (New York University Medical Center, priority 1991, dated 2002).

Biological target: T1, EGFR (Homo sapiens, UniProt P00533)
T1 construct: Full length EGFR was immunoprecipitated with Mab108, and allowed to autophosphorylate; expressed in transfected cells; host or cells: NIH-3T3 cells transfected with wild-type EGFR (HER14)
Experiment: Binding of PLC-γ to immunoprecipitated, autophosphorylated full length EGFR; fraction remaining bound after washes
Settings: Mean+/−SEM, n=4; anti PLC-γ blot with (125I)Protein A, bands quantitated in a γ counter
Experimental: FIG. 11 is a gel pattern showing that phosphorylation of PLC-γ reduces its binding to the EGF receptor. Full length EGFR was immunoprecipitated with Mab108, and allowed to autophosphorylate. Lysate from PLC-γ overexpressing 3T-P1 cells was added and mixed for 90 min at 4° C. After binding, ATP was added to one half of the samples allowing the PLC-γ molecules to be phosphorylated by the EGF receptor. SDS-PAGE sample buffer-was then added to one half of the EGFR-PLC-γ complexes (NO WASH, left panel) and directly loaded onto the 6% gel. The other half was washed three times with HNTG and then loaded on the gel (WASH, right panel. After running duplicate samples on SDS-PAGE, the proteins were transferred to nitrocellulose and probed with anti PLC-γ and (^125I)Protein A. The bands were subsequently cut from the nitrocellulose and quantitated in a γ counter. After three washes with HNTG, 50+/−5% (Mean+/−SEM, n=4) of the non-phosphorylated PLC-γ remained bound to the EGFR while only 22+/−4% of the phosphorylated PLC-γ remained (exposure time: 12 h).
The techniques used are described in several references from the present inventors, laboratory (Margolis, B. L. et al., J. Biol. Chem. 264: 10667-10671 (1989); Cell 57:1101-1107 (1989)). […]

B1: phosphorylated PLC-γ: PLC-γ from 3T-P1 cell lysate phosphorylated by the EGF receptor after addition of ATP (protein, UniProt Q62077 2-1302, looked up)
1-phosphatidylinositol …: AGVATPCANGCGPGAPSEAEVLHLCRSLEVGTVMTLFYSKKSQRPERKTFQVKLETRQITWSRGADKIEGSIDIREIKEIRPGKTSRDFDRYQEDPAFRPDQSHCFVILYGMEFRLKTLSLQATSEDEVNMWIKGLTWLMEDTLQAATPLQIERWLRKQFYSVDRNREDRISAKDLKNMLSQVNYRVPNMRFLRERLTDLEQRSGDITYGQFAQLYRSLMYSAQKTMDLPFLETNALRTGERPEHCQVSLSEFQQFLLEYQGELWAVDRLQVQEFMLSFLRDPLREIEEPYFFLDELVTFLFSKENSVWNSQLDAVCPDTMNNPLSHYWISSSHNTYLTGDQFSSESSLEAYARCLRMGCRCIELDCWDGPDGMPVIYHGHTLTTKIKFSDVLHTIKEHAFVASEYPVILSIEDHCSIAQQRNMAQHFRKVLGDTLLTKPVDIAADGLPSPNQLRRKILIKHKKLAEGSAYEEVPTSVMYSENDISNSIKNGILYLEDPVNHEWYPHYFVLTSSKIYYSEETSSDQGNEDEEEPKEASSSTELHSSEKWFHGKLGAGRDGRHIAERLLTEYCIETGAPDGSFLVRESETFVGDYTLSFWRNGKVQHCRIHSRQDAGTPKFFLTDNLVFDSLYDLITHYQQVPLRCNEFEMRLSEPVPQTNAHESKEWYHASLTRAQAEHMLMRVPRDGAFLVRKRNEPNSYAISFRAEGKIKHCRVQQEGQTVMLGNSEFDSLVDLISYYEKHPLYRKMKLRYPINEEALEKIGTAEPDYGALYEGRNPGFYVEANPMPTFKCAVKALFDYKAQREDELTFTKSAIIQNVEKQDGGWWRGDYGGKKQLWFPSNYVEEMINPAVLEPEREHLDENSPLGDLLRGVLDVPACQIAIRPEGKNNRLFVFSISMPSVAQWSLDVAADSQEELQDWVKKIREVAQTADARLTEGKMMERRKKIALELSELVVYCRPVPFDEEKIGTERACYRDMSSFPETKAEKYVNKAKGKKFLQYNRLQLSRIYPKGQRLDSSNYDPLPMWICGSQLVALNFQTPDKPMQMNQALFMAGGHCGYVLQPSTMRDEAFDPFDKSSLRGLEPCVICIEVLGARHLPKNGRGIVCPFVEIEVAGAEYDSTKQKTEFVVDNGLNPVWPAKPFHFQISNPEFAFLRFVVYEEDMFSDQNFLAQATFPVKGLKTGYRAVPLKNNYSEDLELASLLIKIDIFPAKENGDLSPFSGISLRERASDASSQLFHVRAREGSFEARYQQPFEDFRISQEHLADHFDSRERSTSDGPSSATNLIEDPLHDKLWKCSL
modifications: tyrosine phosphorylated by EGF receptor
notes: PLC-γ from 3T-P1 cell lysate phosphorylated by the EGF receptor after addition of ATP
  PLC-γ remaining bound to the EGFR after three washes with HNTG: 22+/−4%
